Source: article PMC2997714 (Developmental cell, 2009)
“And” between values parts separate entries of the source, which are not always exact repeats. Equal values may be shown once.

Target: the molecule itself
Assay: cross-linking

B1: recombinant His-klp9p (natural protein, S. pombe (fission yeast), UniProt Q1MTQ7 1-633, looked up)
chain: MIQIFLRVKKAQPSSDASNKYGFLTVLNDYEILLESPEDSHAYRVSKSKTLEKASFTKVFPPSCTQLDVFSTICAPLIADSLVNMNDTLLFTLGVSGAGKTYTLFGPSDRPGVAFLALDALFYAIKGREASPQTVEFLRSQLEKCKIVEASKFLRGEAPLDIKVPNTEYYASHFPKIEEKNYQYAIYLSFAEIYNDRIFDLLEKASFFGHRHALSLKKSSTSDKKSIAGIQKVFVSNTTEAYKLIQKVLQLRKSTSTKSNSVSSRSHLIMSIELFKVCTKSNKFESCQIDLVDLAGSERTRSAETSGLLLREGASINRSLLTLGQCLEALRRKHEGKQHIIPFRQSKLTELLFHSGHLSGLAGINMLVNIDPFGSFDENAQVMRYSANAREILPPPLNENSGSQSPSHSLLQKSKNTSSTKALTSHLEQLQQENQQLRMLLADADSEMMNLEYEIRQQMTREMEERVSEVERTFLTKLLEESAQGIEYTDQKLEKMGGWMKKLQDENSEKTETIAQLEQIIEELHEELRSLEEESIKESSATQQNENQHKRSSRKLLYEDKQAIQEAHTINTKRKLWPQSTLIQAPNSDDEENVPSPSPKKKVVSPIKPLSPSRRPPLTSLYSGTTDIDINEL
stoichiometry N: 2 and 4
